Consider 1 substance from patent US20110151538A1.

The target of the assay is CBM-Coh (carbohydrate-binding module and type-I cohesin from C. thermocellum CipA) (Clostridium thermocellum). Briefly: ELISA, plates coated with CBM-Coh; wtDoc-Xyn in 10 mM EDTA against wtDoc-Xyn in 1 mM CaCl2. (ELISA stands for enzyme-linked immunosorbent assay.)

As for “wtDoc-Xyn (wild-type C. thermocellum Cel48S dockerin fused to the N-terminus of G. stearothermophilus xylanase T-6, C-terminal His tag)”, the ΔΔG (in EDTA relative to Ca2+) was 2.01 kcal/mol.
